Laboratory results reported in IntAct's records for PubMed 22000520.

B1: Serine/threonine-protein kinase PknB (Mycobacterium tuberculosis (strain ATCC 25618 / P9WI81 (parent)
chain: MTTPSHLSDRYELGEILGFGGMSEVHLARDLRLHRDVAVKVLRADLARDPSFYLRFRREAQNAAALNHPAIVAVYDTGEAETPAGPLPYIVMEYVDGVTLRDIVHTEGPMTPKRAIEVIADACQALNFSHQNGIIHRDVKPANIMISATNAVKVMDFGIARAIADSGNSVTQTAAVIGTAQYLSPEQARGDSVDARSDVYSLGCVLYEVLTGEPPFTGDSPVSVAYQHVREDPIPPSARHEGLSADLDAVVLKALAKNPENRYQTAAEMRADLVRVHNGEPPEAPKVLTDAERTSLLSSAAGNLSGPRTDPLPRQDLDDTDRDRSIGSVGRWVAVVAVLAVLTVVVTIAINTFGGITRDVQVPDVRGQSSADAIATLQNRGFKIRTLQKPDSTIPPDHVIGTDPAANTSVSAGDEITVNVSTGPEQREIPDVSTLTYAEAVKKLTAAGFGRFKQANSPSTPELVGKVIGTNPPANQTSAITNVVIIIVGSGPATKDIPDVAGQTVDVAQKNLNVYGFTKFSQASVDSPRPAGEVTGTNPPAGTTVPVDSVIELQVSKGNQFVMPDLSGMFWVDAEPRLRALGWTGMLDKGADVDAGGSQHNRVVYQNPPAGTGVNRDGIITLRFGQ
partner: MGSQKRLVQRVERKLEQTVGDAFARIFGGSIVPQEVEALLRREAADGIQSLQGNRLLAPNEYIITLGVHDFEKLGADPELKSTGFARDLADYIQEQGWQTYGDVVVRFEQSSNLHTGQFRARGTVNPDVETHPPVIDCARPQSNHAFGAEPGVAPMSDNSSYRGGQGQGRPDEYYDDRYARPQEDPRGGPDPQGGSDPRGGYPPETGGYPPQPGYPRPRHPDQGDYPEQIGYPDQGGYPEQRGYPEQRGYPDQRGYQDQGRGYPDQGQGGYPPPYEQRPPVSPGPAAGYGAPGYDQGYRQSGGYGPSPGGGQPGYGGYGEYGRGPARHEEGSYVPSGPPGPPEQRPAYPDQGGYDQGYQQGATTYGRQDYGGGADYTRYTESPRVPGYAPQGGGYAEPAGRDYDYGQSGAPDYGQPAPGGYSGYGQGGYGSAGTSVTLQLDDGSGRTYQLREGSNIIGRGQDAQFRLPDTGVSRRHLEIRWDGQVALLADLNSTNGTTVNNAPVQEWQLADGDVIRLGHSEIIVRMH
B2: FHA domain-containing protein FhaA (Mycobacterium tuberculosis (strain ATCC 25618 / P71590 (parent)
chain: B1 partner
partner: B1 chain

Variants of: B1
Details: with fhaa_myctu fhaA

With T309A as the variant, how does the “effect of a mutation on the interaction” value read?
The value was “increasing interaction”.

How did the “effect of a mutation on the interaction” value turn out when T294A was run?
The value was “increasing interaction”.

Variants of: B2
Details: with pknb_myctu pknB

For MGSQKRLVQRVERKLEQTVGDAFARIFGGSIVPQEVEALLRREAADGIQSLQGNRLLAPNEYIITLGVHDFEKLGADPELKSTGFARDLADYIQEQGWQTYGDVVVRFEQSSNLHAGQFRARGTVNPDVETHPPVIDCARPQSNHAFGAEPGVAPMSDNSSYRGGQGQGRPDEYYDDRYARPQEDPRGGPDPQGGSDPRGGYPPETGGYPPQPGYPRPRHPDQGDYPEQIGYPDQGGYPEQRGYPEQRGYPDQRGYQDQGRGYPDQGQGGYPPPYEQRPPVSPGPAAGYGAPGYDQGYRQSGGYGPSPGGGQPGYGGYGEYGRGPARHEEGSYVPSGPPGPPEQRPAYPDQGGYDQGYQQGATTYGRQDYGGGADYTRYTESPRVPGYAPQGGGYAEPAGRDYDYGQSGAPDYGQPAPGGYSGYGQGGYGSAGTSVTLQLDDGSGRTYQLREGSNIIGRGQDAQFRLPDTGVSRRHLEIRWDGQVALLADLNSTNGTTVNNAPVQEWQLADGDVIRLGHSEIIVRMH [T116A], which “effect of a mutation on the interaction” value is on record?
The value was “disrupting interaction”.
